Here are results for one molecule from patent publication US20230065226A1.

The target of this assay is mouse chemokine receptors (mouse). Kind of assay: cell-based or functional assay.

B1: (LD78β(C11S)Fv^315)2 vaccibody (protein, part only; not given: IgG3 hinge, CH3, scFv carrier, not shown: another chain or arm of the molecule; a dimerising Fc or GST; large carriers; small tags and cut ends)
chain: APLAADTPTASCFSYTSRQIPQNFIADYFETSSQCSKPSVIFLTKRGRQVCADPSEEWVQKYVSDLELSA
modifications: not fully specified (C-terminus); ends and bridges not checked; also: covalent homodimer via IgG3 hinge disulfides, C-terminal carrier (IgG3 hinge, CH3, scFv315) not in chain
Take B1: the ability to stimulate T cells (proliferation of Id^315-specific Th2 cells with BALB/c splenocytes as APC) came out at 100 fold.
